The values that follow come from patent publication US20250163119A1, “COMPOUNDS FOR THE TREATMENT OF DIABETES OR OBESITY” (Eli Lilly and Company, priority 2023, published 2025).

*1 amine or outer side, *2 acyl side, *3 side chain or, on linkers, in order; H or OH if unused. Where a SMILES comes first, the peptide text is derived from it. Where no end group is shown, it is not given here. Side-chain parts run from the residue outwards. [ ]: non-standard residue; d: D form. The star is where a group is joined. C20 diacid = O=C(O)CCCCCCCCCCCCCCCCCCC(=O)*; γGlu = O=C(O)[C@H](CCC(=O)[*:2])N[*:1]; εLys = N[C@@H](CCCCN[*:1])C(=O)[*:2]; αMeL = CC(C)C[C@](C)(N)C(=O)O; AEEA = NCCOCCOCC(=O)O; Aib = CC(C)(N)C(=O)O

One assay addresses T1, human CRHR2 (Homo sapiens, UniProt Q13324).
T1 construct: expressed in transfected cells
T1 sequence (Q13324 1-438 isoform Q13324-2): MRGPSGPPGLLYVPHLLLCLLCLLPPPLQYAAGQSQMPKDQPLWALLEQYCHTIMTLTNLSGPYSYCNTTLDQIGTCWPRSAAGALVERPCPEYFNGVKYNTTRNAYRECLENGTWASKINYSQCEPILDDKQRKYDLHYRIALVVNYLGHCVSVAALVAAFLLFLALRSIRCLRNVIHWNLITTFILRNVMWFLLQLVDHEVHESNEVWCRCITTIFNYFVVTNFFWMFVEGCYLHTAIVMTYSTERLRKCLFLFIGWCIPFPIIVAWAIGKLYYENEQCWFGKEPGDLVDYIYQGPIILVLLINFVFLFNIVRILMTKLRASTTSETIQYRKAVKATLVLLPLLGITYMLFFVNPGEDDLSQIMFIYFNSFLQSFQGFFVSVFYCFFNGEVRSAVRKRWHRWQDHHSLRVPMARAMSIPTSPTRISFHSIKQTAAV
Put plainly: Human CRHR2 cAMP assay (HTRF) in HEK293 cells stably expressing human CRHR2. In kind it is cell-based. The following applies: HEK293 cells overexpressing human CRHR2; relative EC50, maximum 10 nM human UCN2; mean ± SE; read-out: hCRHR2 cAMP EC50 (pM, ± SE). As for the experimental part: The corticotropin-releasing hormone (CRH) receptor 1 and 2 (CRHR1 and CRHR2) are GPCRs that were functionally coupled to Gs proteins. Stimulation of these receptors results in an increased production of intracellular cAMP, which can be detected using standard in vitro technologies. In vitro activity of peptides was measured by the amount of cAMP formed in human CRHR1 and CRHR2 overexpressed cells.
Human CRHR1 and CRHR2 receptors were stably expressed in human embryonic kidney cells (HEK293) under control of a pcDNA expression vector. The HEK293 cell line was cultured in DMEM 1× (Gibco, 93-0152DK) supplemented with 10% FBS, 1 mM sodium pyruvate, 1×MEM NEAA, 1× GlutaMAX and 10 mM HEPES. The plasmids of human CRHR1-pQCXIP (T7364) and human CRHR2b-R2683puro (T16761) DNA were transfected into HEK293 cells using Lipo fectAMINE 3000 Transfection reagent (Invitrogen, L3000001). After 20 days under selection, the mRNA levels from different clones were measured to confirm the expression of human CRHR1 and CRHR2 genes. To determine the function of over-expressed CRHR cells, the intracellular cAMP levels in response to human UCN1 and UCN2 were measured and compared to the expression of CRHR1 and CRHR2 mRNA in each clone.
Human CRHR1 cells were cultured in DMEM 1× (Gibco, 93-0152DK) supplemented with 10% FBS, 1 mM sodium pyruvate, 1×MEM NEAA, 1×GlutaMAX, 10 mM HEPES, and 800 μg/ml G418. Human CRHR2 cells were cultured at the same media (DMEM 1×, 10% FBS, 1 mM sodium pyruvate, 1×MEM NEAA, 1×GlutaMAX, 10 mM HEPES) in the presence of 0.5 ug/mL puromycin. Cultured cells were grown to 90% confluency and harvested. The cells were frozen at 10×10e6/ml in a mixture of […] fetal bovine serum plus 7% DMSO and stored in liquid nitrogen until use.
On the day of the assay, the frozen cells were thawed and diluted in assay buffer (Phenol Red free MEM (Corning, 17-305-CV, lot #32121010), 0.1% Casein (Sigma C4765, lot #SLCG2120), 5 mM HEPES pH 7.4 containing 0.25 mM IBMX). 10 ul of human CRHR1 cells (25,000 cells) or 10 μL of human CRHR2 cells (5,000 cells) were dispensed into each well of white poly-D-lysine coated 384-well plates (Corning cat #354661). Test compounds diluted in DMSO were added (200 nL/well) in a 1:3 dilution series using ECHO acoustic liquid handler (Beckman). The mixture of cells and test compounds were incubated at 37° C. for 1 hour for the hCRHR1 plate, while the CRHR2 plates were incubated at room temperature for 30 min.
The amount of intracellular cAMP was quantitated using HTRF technology (Homogeneous Time Resolved Fluorescence; Cisbio) as per vendor instructions. Briefly, 10 uL CAMP-d2 conjugate and 10 uL anti-CAMP-cryptate conjugate in lysis buffer were incubated with the treated cells at room temperature for 60 min. The HTRF signal was immediately detected using an Envision plate reader (Perkin-Elmer) to calculate the ratio of fluorescence at 665 to 620 nm.
Raw fluorescence data for concentration curves of the peptides in Table 2 and Table 3 were converted to cAMP amount (pmol/well) using a cAMP standard curve generated for each experiment.
In general terms: cAMP levels reflect the balance of adenylyl cyclase and phosphodiesterase activity.

Assay [1] has as its target T2, human corticotropin-releasing hormone receptor 1 (CRHR1) (human, UniProt P34998 24-415).
T2 sequence (looked up): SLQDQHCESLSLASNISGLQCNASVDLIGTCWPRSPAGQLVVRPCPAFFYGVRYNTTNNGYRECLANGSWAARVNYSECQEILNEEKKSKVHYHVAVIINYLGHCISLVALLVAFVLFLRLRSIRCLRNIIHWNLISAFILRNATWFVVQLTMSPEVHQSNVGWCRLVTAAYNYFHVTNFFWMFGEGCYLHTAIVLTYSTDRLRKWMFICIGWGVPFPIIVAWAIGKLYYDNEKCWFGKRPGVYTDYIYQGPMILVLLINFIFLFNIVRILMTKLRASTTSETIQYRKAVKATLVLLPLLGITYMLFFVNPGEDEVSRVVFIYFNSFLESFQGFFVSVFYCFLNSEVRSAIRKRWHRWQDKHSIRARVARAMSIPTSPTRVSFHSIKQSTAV
Put plainly: cell-based or functional assay.

Regarding `CC[C@H](C)[C@H](NC(C)=O)C(=O)N[C@H](C(=O)N[C@H](C(=O)N[C@@H](CO)C(=O)N[C@@](C)(CC(C)C)C(=O)N[C@@H](CC(=O)O)C(=O)N[C@@H](C(=O)N1CCC[C@H]1C(=O)N[C@H](C(=O)NCC(=O)N[C@@](C)(CC(C)C)C(=O)N[C@@H](CC(C)C)C(=O)N[C@@H](CCC(N)=O)C(=O)N[C@H](C(=O)N[C@@H](CCCCN)C(=O)N[C@@H](CC(C)C)C(=O)N[C@@H](CCC(=O)O)C(=O)N[C@@H](CCC(N)=O)C(=O)N[C@@H](CCC(=O)O)C(=O)N[C@@H](CCCNC(=N)N)C(=O)N[C@@H](C)C(=O)N[C@@H](CCC(=O)O)C(=O)N[C@@H](CCCCN)C(=O)N[C@@H](C)C(=O)N[C@@H](CCCNC(=N)N)C(=O)N[C@@H](CCC(N)=O)C(=O)N[C@@H](CCC(N)=O)C(=O)N[C@@H](C)C(=O)N[C@@H](CCCCNC(=O)[C@@H](N)CCCCNC(=O)CC[C@H](NC(=O)COCCOCCNC(=O)CCCCCCCCCCCCCCCCCCC(=O)O)C(=O)O)C(=O)N[C@@H](CCC(=O)O)C(=O)N[C@@H](CC(N)=O)C(=O)N[C@H](C(=O)N[C@@H](CCC(=O)O)C(=O)N[C@H](C(=O)N[C@@H](CC(C)C)C(=O)N[C@@H](C)C(=O)N[C@@H](CCC(N)=O)C(=O)N[C@H](C(N)=O)C(C)C)[C@@H](C)CC)[C@@H](C)O)[C@@H](C)CC)[C@@H](C)O)C(C)C)[C@@H](C)O)C(C)C` [SEQ ID NO: 35, Ac-IVTS αMeL D (D-Val) PTG αMeL LQIKLEQERAEKARQQAK(ϵK-γE-(2-[2-(2-Amino-ethoxy)-ethoxy]-acetyl)-CO-(CH2)18-CO2H)ENTEILAQV-NH2] (Ac-IVTS[αMeL]D[dV]PTG[αMeL]LQIKLEQERAEKARQQAK([εLys-γGlu-AEEA-C20 diacid])ENTEILAQV-NH2), the EC50 (as a rule, the concentration at which the effect is half-maximal) on human CRHR2 was determined as 5.3 ± 0.9 pM. On to Ac-IVTS[αMeL]D[dV]PTG[αMeL]LQIKLEQERAEKARQQAKENTEILAQV-NH2 (not fully specified (residue 29)) [polypeptide comprising SEQ ID NO:43], for which the “hCRHR1 cAMP EC50” value in assay [1] was more than 10 µM.

B1: polypeptide comprising SEQ ID NO:42 (peptide)
peptide: Ac-IVTS[αMeL]D[dV]PI[Aib][αMeL]LQIKLEQERAEKARQQAK([AEEA-AEEA-γGlu-C20 diacid])ENTEILAQV-NH2
SMILES: CC[C@H](C)[C@H](NC(C)=O)C(=O)N[C@H](C(=O)N[C@H](C(=O)N[C@@H](CO)C(=O)N[C@@](C)(CC(C)C)C(=O)N[C@@H](CC(=O)O)C(=O)N[C@@H](C(=O)N1CCC[C@H]1C(=O)N[C@H](C(=O)NC(C)(C)C(=O)N[C@@](C)(CC(C)C)C(=O)N[C@@H](CC(C)C)C(=O)N[C@@H](CCC(N)=O)C(=O)N[C@H](C(=O)N[C@@H](CCCCN)C(=O)N[C@@H](CC(C)C)C(=O)N[C@@H](CCC(=O)O)C(=O)N[C@@H](CCC(N)=O)C(=O)N[C@@H](CCC(=O)O)C(=O)N[C@@H](CCCNC(=N)N)C(=O)N[C@@H](C)C(=O)N[C@@H](CCC(=O)O)C(=O)N[C@@H](CCCCN)C(=O)N[C@@H](C)C(=O)N[C@@H](CCCNC(=N)N)C(=O)N[C@@H](CCC(N)=O)C(=O)N[C@@H](CCC(N)=O)C(=O)N[C@@H](C)C(=O)N[C@@H](CCCCNC(=O)COCCOCCNC(=O)COCCOCCNC(=O)CC[C@H](NC(=O)CCCCCCCCCCCCCCCCCCC(=O)O)C(=O)O)C(=O)N[C@@H](CCC(=O)O)C(=O)N[C@@H](CC(N)=O)C(=O)N[C@H](C(=O)N[C@@H](CCC(=O)O)C(=O)N[C@H](C(=O)N[C@@H](CC(C)C)C(=O)N[C@@H](C)C(=O)N[C@@H](CCC(N)=O)C(=O)N[C@H](C(N)=O)C(C)C)[C@@H](C)CC)[C@@H](C)O)[C@@H](C)CC)[C@@H](C)CC)C(C)C)[C@@H](C)O)C(C)C
On to B1, for which the “hCRHR1 cAMP EC50” value in assay [1] turned out to be 2.3 µM.

B2: polypeptide comprising SEQ ID NO:41 (peptide)
peptide: Ac-IVTS[αMeL]D[dV]PT[Aib][αMeL]LQIKLEQERAEKARQQAK([AEEA-AEEA-γGlu-C20 diacid])ENTEILAQV-NH2
SMILES: CC[C@H](C)[C@H](NC(C)=O)C(=O)N[C@H](C(=O)N[C@H](C(=O)N[C@@H](CO)C(=O)N[C@@](C)(CC(C)C)C(=O)N[C@@H](CC(=O)O)C(=O)N[C@@H](C(=O)N1CCC[C@H]1C(=O)N[C@H](C(=O)NC(C)(C)C(=O)N[C@@](C)(CC(C)C)C(=O)N[C@@H](CC(C)C)C(=O)N[C@@H](CCC(N)=O)C(=O)N[C@H](C(=O)N[C@@H](CCCCN)C(=O)N[C@@H](CC(C)C)C(=O)N[C@@H](CCC(=O)O)C(=O)N[C@@H](CCC(N)=O)C(=O)N[C@@H](CCC(=O)O)C(=O)N[C@@H](CCCNC(=N)N)C(=O)N[C@@H](C)C(=O)N[C@@H](CCC(=O)O)C(=O)N[C@@H](CCCCN)C(=O)N[C@@H](C)C(=O)N[C@@H](CCCNC(=N)N)C(=O)N[C@@H](CCC(N)=O)C(=O)N[C@@H](CCC(N)=O)C(=O)N[C@@H](C)C(=O)N[C@@H](CCCCNC(=O)COCCOCCNC(=O)COCCOCCNC(=O)CC[C@H](NC(=O)CCCCCCCCCCCCCCCCCCC(=O)O)C(=O)O)C(=O)N[C@@H](CCC(=O)O)C(=O)N[C@@H](CC(N)=O)C(=O)N[C@H](C(=O)N[C@@H](CCC(=O)O)C(=O)N[C@H](C(=O)N[C@@H](CC(C)C)C(=O)N[C@@H](C)C(=O)N[C@@H](CCC(N)=O)C(=O)N[C@H](C(N)=O)C(C)C)[C@@H](C)CC)[C@@H](C)O)[C@@H](C)CC)[C@@H](C)O)C(C)C)[C@@H](C)O)C(C)C
For the molecule B2, the “hCRHR1 cAMP EC50” value in assay [1] was 3.7 µM. For Ac-IVTS[αMeL]D[dV]PTG[αMeL]LQIKLEQERAEKARQQAKENTEILAQV-NH2 (not fully specified (residue 29)) [polypeptide comprising SEQ ID NO:44], the “hCRHR1 cAMP EC50” value in assay [1] was more than 10 µM.

With [γGlu]GPSIVTS[αMeL]D[dV]PI[Aib][αMeL]LQIKLEQERAEKARQQAK([AEEA-AEEA-γGlu-C20 diacid])ENTEILAQV-NH2 [polypeptide comprising SEQ ID NO:45], the “hCRHR1 cAMP EC50” value in assay [1] was 3.7 µM.
